# ± gives the standard deviation of the averaged measurements.
# Tested on: ATP
# Test: switch fluorescence ratio, 500 uM ATP over buffer (Cy3 cluster intensity, sum of 5 cycles each) (fold (ratio)); higher = stronger signal-on switching upon ATP binding; sequences stand for … in TCGTCGGCAGCGTCAGATGTGTATAAGAGACAGTTTTTTTTTTTTTTTTTTTTTTTTT…TC
# Settings: aptamer strand: ATP DNA aptamer (quencher-CACCTGGGGGAGTATTGCGGAGGAAGG + anchor), 100 nM annealed; ATP concentration: 500 uM
# Outline: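 For every switch-domain sequence, the fluorescence ratio is the mean of per-cluster values, each being summed target-cycle Cy3 intensity over summed buffer-cycle Cy3 intensity. Clusters outside 100-1000 RFU were excluded. On a modified Illumina MiSeq flow-cell, the Cy3-labelled switching-strand clusters were annealed to 100 nM quencher-labelled ATP aptamer, imaged in selection buffer and then after 15 min with 500 uM ATP at 22 °C. Five such cycles were run, with NaOH stripping and re-annealing between them.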
# 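Note: ATP exposure 15 min at 22 °C before imaging.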
row,Sequence,switch fluorescence ratio
1,AGTCATCGGC,1.01 ± 0.056
2,AGCATTTAGG,1.02 ± 0.035
3,TCGAGTCCTA,0.9857 ± 0.0037
4,CAGGCGGAGA,0.969 ± 0.026
5,ATTTCCCGAT,0.979 ± 0.012
6,GGATAGAGCT,1 ± 0.034
7,CGTGAGGGTG,1.01 ± 0.079
8,TAAAATGCGT,0.99954 ± 0.00034
9,GGGAAAGAAC,1.15 ± 0.2
10,TCGGTTCGTG,1.01 ± 0.054
11,TTCAAAATGT,0.997 ± 0.032
12,CTGACGTGCT,1.062 ± 0.004
13,GAATTTGGGG,0.961 ± 0.03
14,CACAGTTTGC,1.02 ± 0.026
15,GTTTGCTGGT,1 ± 0.015
16,TCGTCGGGGC,1.03 ± 0.029
17,GCGATTAAG,0.981 ± 0.017
18,GCTTGAGTTA,0.9852 ± 0.0077
19,TGGCGGCTGG,0.996 ± 0.018
20,CTTGATAACG,1.024 ± 0.0033
21,CCAAGGGATG,0.967 ± 0.018
22,TTTGCCTGCT,1.01 ± 0.043
23,GGGGCACGTG,0.995 ± 0.015

row,Sequence,switch fluorescence ratio
1,GCTATTGATC,1.02 ± 0.021
2,AAAGTTGCAG,1.02 ± 0.023
3,TGGTTTCATT,1.01 ± 0.017
4,GCTGTTTGCT,1.01 ± 0.034
5,ATTGAAATTT,1.05 ± 0.093
6,ATGGAGTAAA,1.005 ± 0.0084
7,TGGTATGGGT,1.23 ± 0.33
8,AAGACCGGCA,1.01 ± 0.038
9,GGGAATAGCG,0.977 ± 0.046
10,TTGCTTCAAT,0.983 ± 0.045
11,CGCCGTGTCG,0.927 ± 0.049
12,AAATGGGTAC,0.9935 ± 0.0099
13,TTTTAGGATG,0.996 ± 0.025
14,GTTAGAGCGG,1.02 ± 0.031
15,CATATAGGGC,0.985 ± 0.02
16,CTAGGACTTG,0.945 ± 0.026
17,AAGCGGGTCG,1.03 ± 0.049
18,AGGGTTTGGA,1 ± 0.02
19,ACGGGGTCCG,0.95 ± 0.03
20,GGTTAAGCCG,0.996 ± 0.017
21,ATGAGCCACT,0.994 ± 0.03
22,CATGAGGTTA,0.9855 ± 0.0094
23,TTTGTTGAAA,1.02 ± 0.018

row,Sequence,switch fluorescence ratio
1,GGTCAGGGTC,1.01 ± 0.062
2,GGGGAGGTGT,1.05 ± 0.066
3,AATGTTGTGC,0.9381 ± 0.0049
4,ATTCGTTACT,1.03 ± 0.051
5,TGGGTTAAAG,0.993 ± 0.016
6,CGGCGCCCA,0.997 ± 0.01
7,TCTTTGATCT,1.02 ± 0.054
8,TTGTTCCATA,1 ± 0.033
9,GGCTAACAAG,1.01 ± 0.02
10,TGCATGCAGG,1.02 ± 0.015
11,GTTGGAAACT,1.04 ± 0.017
12,CATATTATCA,1.02 ± 0.024
13,AGGTGATAGG,0.9825 ± 0.0059
14,AGTTTGTCAT,0.967 ± 0.032
15,AATGGTGATG,0.9904 ± 0.0077
16,TGAGAATTTT,0.996 ± 0.032
17,ATGTCGTCTC,1.003 ± 0.0091
18,TAAATTTAGG,0.989 ± 0.02
19,TGGGGGGCCG,1.06 ± 0.19
20,CTGGCGACAC,1.39 ± 0.14
21,CCGTCTCTCC,1.73 ± 0.093
22,GGGGAAGTGC,1.01 ± 0.055
23,ATAAACGTTT,1.018 ± 0.0069

row,Sequence,switch fluorescence ratio
1,AAATCCTTGT,0.992 ± 0.039
2,GGGAAGCGCC,0.9967 ± 0.0032
3,ATTGGGAATA,0.986 ± 0.029
4,GCGGTCAGCT,0.99 ± 0.087
5,AGTTACTGGG,1.06 ± 0.046
6,GTGTGTCTCT,0.999 ± 0.016
7,AGGTCCGGTA,1.01 ± 0.011
8,TTATACGCGG,0.991 ± 0.026
9,CTGTTTGGGT,0.9759 ± 0.0026
10,TATTTGTAGG,1.05 ± 0.045
11,TTGTGTTTAT,0.965 ± 0.015
12,AAAGTTGTCT,1.01 ± 0.028
13,TTGGACTGGG,0.948 ± 0.082
14,TTTGTCAAAC,1.11 ± 0.13
15,TTATGCTTTC,1.25 ± 0.34
16,CCCGGTACGG,1.029 ± 0.0017
17,TGAACGTTGG,0.997 ± 0.029
18,TTTCGGGCCA,1.12 ± 0.039
19,TCGGTATGAG,0.9698 ± 0.0027
20,GGGGTAGTTC,1.01 ± 0.028
21,TGCTAGCCTC,0.9724 ± 0.004
22,AGGAAGGGT,0.9978 ± 0.0079
23,CAAAGGCGGA,0.991 ± 0.014

row,Sequence,switch fluorescence ratio
1,TGGGACACTG,0.972 ± 0.035
2,GTATGATTGT,0.994 ± 0.027
3,CAGGAGACGC,1.05 ± 0.036
4,ATAGGCAGAG,1.003 ± 0.0083
5,AGACTGCCTG,0.971 ± 0.077
6,GGGTATTGTT,0.995 ± 0.024
7,GGGTATGGGG,1.01 ± 0.031
8,TTTTTGATTA,0.986 ± 0.062
9,CTTGTTCTTA,0.996 ± 0.024
10,ATTGGTGCGT,1.0357 ± 0.0007
11,AAGAGGGGTA,0.999 ± 0.018
12,GGCGGGGGCA,0.995 ± 0.024
13,AGAAATTGTT,0.999 ± 0.047
14,TAGGGGAGAT,1.027 ± 0.0098
15,TTTTTATATA,0.997 ± 0.016
16,GGACTCGGGG,1.04 ± 0.043
17,CCATGCCGGG,0.979 ± 0.052
18,CGTACTGTAA,1.18 ± 0.03
19,AGCAATTTCG,1.42 ± 0.081
20,AAGGCCGGAA,1.04 ± 0.025
21,TTGCTCGTGG,1.028 ± 0.0047
22,ACCTTGCACA,1.252 ± 0.012
23,CACTGCTCCT,1.09 ± 0.013

row,Sequence,switch fluorescence ratio
1,TACGTATTTT,1.023 ± 0.0035
2,GCGTCAGCGG,0.981 ± 0.02
3,AGTATGGCGG,0.975 ± 0.068
4,TTCTATTCTT,1.02 ± 0.026
5,AGACGTTTTT,1 ± 0.033
6,TATTGGTTTG,1.04 ± 0.045
7,GATAGTTTAC,1.01 ± 0.044
8,GCGGGCATTT,0.995 ± 0.015
9,TTTCTTCGGG,1 ± 0.019
10,TCGAGGCGGA,0.985 ± 0.049
11,AATGTGGTCT,0.994 ± 0.021
12,ATTTATGATA,0.99 ± 0.008
13,ACCGGTTTCT,0.997 ± 0.037
14,TATTCTTTGA,1.02 ± 0.03
15,AGTCCTTTT,0.9882 ± 0.0095
16,GCCGGACTTT,1.01 ± 0.012
17,AGGGGACGAC,1.02 ± 0.027
18,TCAGGTATCG,1 ± 0.021
19,GACATCCCCT,1.04 ± 0.047
20,GATTTATTCG,0.983 ± 0.014
21,TGTCGGGGTT,0.9932 ± 0.0083
22,GGGGACTTTT,0.99 ± 0.026
23,TCAAAGCAAA,1.41 ± 0.077

row,Sequence,switch fluorescence ratio
1,ACTGGAGGAT,1.05 ± 0.013
2,TAAAACCGGT,1.02 ± 0.018
3,TGAAAGTCTC,1.003 ± 0.0057
4,TTCTGGCATG,1.09 ± 0.099
5,ACGGCGCTTA,1.19 ± 0.054
6,GGTATCGGTT,0.992 ± 0.045
7,AGTCGACTGT,0.956 ± 0.02
8,GATTCAGGGG,1.04 ± 0.026
9,GGGGAAAAGC,1.04 ± 0.014
10,GATCAACTGT,1 ± 0.032
11,TTGGTTTTTA,0.98 ± 0.018
12,TACCATCTTG,0.997 ± 0.037
13,TACTTTTGCT,0.9669 ± 0.0014
14,TTGGACTAAA,1.06 ± 0.011
15,CGGGGTGGTA,0.9873 ± 0.0069
16,TTTTTGAAT,1.01 ± 0.021
17,CAGTTGTAAA,0.9699 ± 0.0067
18,CATGACGTGT,1.01 ± 0.012
19,GACTTCGGGA,1.13 ± 0.052
